The text below walks through data of article PMC10885103 (2023).

This experiment addresses T1, TNFR-1 CRD2 72-116 (Homo sapiens, UniProt P19438).
T1 chain: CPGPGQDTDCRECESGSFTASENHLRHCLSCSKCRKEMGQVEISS
Kind of experiment: grating-coupled interferometry.

Bridges are numbered along the chain shown (N, C = ends). Where no end group is shown, it is not given here. [ ]: non-standard residue; d: D form.

As usually defined, the Kd is the free concentration of one partner at which half of the binding sites on the other are occupied at equilibrium, for simple one-to-one binding.

In the case of [dC](cysteinyl)[dF][dH][dC][dI][dW][dL]G[dD][dE][dC] (disulfide 4-11; also: CRD2 with C-terminal biotin linker) [d-TCPB], binding was put at a Kd of 1000 nM.
